Substitutions are numbered along the chain they refer to.
B1: Atrazine chlorohydrolase (AtzA), wild type (enzyme, Pseudomonas sp. strain ADP)
chain: MQTLSIQHGTLVTMDQYRRVLGDSWVHVQDGRIVALGVHAESVPPPADRVIDARGKVVLPGFINAHTHVNQILLRGGPSHGRQFYDWLFNVVYPGQKAMRPEDVAVAVRLYCAEAVRSGITTINENADSAIYPGNIEAAMAVYGEVGVRVVYARMFFDRMDGRIQGYVDALKARSPQVELCSIMEETAVAKDRITALSDQYHGTAGGRISVWPAPATTTAVTVEGMRWAQAFARDRAVMWTLHMAESDHDERIHGMSPAEYMECYGLLDERLQVAHCVYFDRKDVRLLHRHNVKVASQVVSNAYLGSGVAPVPEMVERGMAVGIGTDNGNSNDSVNMIGDMKFMAHIHRAVHRDADVLTPEKILEMATIDGARSLGMDHEIGSIETGKRADLILLDLRHPQTTPHHHLAATIVFQAYGNEVDTVLIDGNVVMENRRLSFLPPERELAFLEEAQSRATAILQRANMVANPAWRSL
notes: Atrazine chlorohydrolase AtzA of Pseudomonas sp. strain ADP, wild-type atzA gene in the pCS150 expression vector; about 470 amino acids; one Fe2+ per monomer; hexamer is a trimer of dimers; also called wild-type protein; source: E. coli BL21 λDE3, purified (Ni-NTA, SEC, thrombin cleavage of the His tag, SEC)
B2: AtzA Ala170Thr, Met256Ile, Pro258Thr, Tyr261Ser variant (enzyme, Pseudomonas sp. strain ADP)
chain: B1 chain with A170T, M256I, P258T, Y261S
notes: synthetic gene (Life Technologies) subcloned into pCS150; The PDB entries hold the wild-type parent of the same vector, not this variant; also called AtzA variant; the variant; source: E. coli BL21 λDE3, purified (Ni-NTA, SEC, thrombin cleavage of the His tag, SEC)

What was measured:
[1] = target: the molecule itself; test: crystal structure; two crystal forms: P22(1)2(1) at 2.8 Å (two hexamers in the asymmetric unit) and P2(1)2(1)2(1) at 2.2 Å (one hexamer); PEG 8000 or PEG 10 000, 50 mM HEPES pH 7.1-7.3, 281 K
[2] = target: the molecule itself; test: SEC; purified variant, size by SEC; data not shown

| Protein | stoichiometry N [1] | stoichiometry N [2] |
| --- | --- | --- |
| B1 | 6 |  |
| B2 |  | 2 |
